Data as given in patent US20090087494A1 (BOARD OF REGENTS OF THE UNIVERSITY OF NEBRASKA, published 2009).

Experiments:
bovine LHRH receptor [1] = target: T1, bovine LHRH receptor (bovine, UniProt P32236 1-328); assay: displacement of 125I-deslorelin, bovine pituitary membranes, low affinity site (IC50 II)
T1 construct: whole, on cells; The receptor stood in crude membrane preparations of bovine tissue homogenates, not on intact cells; also called GnRH receptor
T1 sequence (looked up): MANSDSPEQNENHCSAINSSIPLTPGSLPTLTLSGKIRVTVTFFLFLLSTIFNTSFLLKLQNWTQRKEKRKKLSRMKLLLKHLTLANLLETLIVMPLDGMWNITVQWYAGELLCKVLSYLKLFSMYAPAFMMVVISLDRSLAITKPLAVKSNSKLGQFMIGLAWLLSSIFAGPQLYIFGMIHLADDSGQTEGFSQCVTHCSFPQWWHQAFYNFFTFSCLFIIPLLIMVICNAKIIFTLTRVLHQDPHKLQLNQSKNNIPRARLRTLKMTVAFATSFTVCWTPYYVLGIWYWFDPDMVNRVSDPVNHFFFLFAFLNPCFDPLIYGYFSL
Experimental: (§1) Competition Studies: To determine the amount of unlabelled deslorelin required to displace the radioactivity, competition studies were conducted. Briefly, membranes were incubated with 100,000 cpm of I¹²⁵ deslorelin in the presence or absence of unlabelled deslorelin (0.01-3,000 ng) in a total volume of 200 μl for 4 hr at 4° C. Assays were performed in triplicates. At the end of 4 hr, the incubation tubes were centrifuged at 10,000 g for 20 min at 4° C. to separate the bound fraction. Radioactivity was measured in the pellet using a Perkin-Elmer γ-counter. The same controls as in the kinetic and saturation studies were used. The experiment was repeated three times.

bovine LHRH receptor [2] = target: T1, bovine LHRH receptor; assay: displacement of 125I-deslorelin, bovine nasal MTP region membranes, low affinity site (IC50 II)
Experimental: as §1

bovine LHRH receptor [3] = target: T1, bovine LHRH receptor; assay: displacement of 125I-deslorelin, bovine pituitary membranes, high affinity site (IC50 I)
Experimental: as §1

bovine LHRH receptor [4] = target: T1, bovine LHRH receptor; assay: displacement of 125I-deslorelin, bovine nasal MTP region membranes, high affinity site (IC50 I)
Experimental: as §1

bovine LHRH receptor [5] = target: T1, bovine LHRH receptor; assay: displacement of 125I-deslorelin, bovine nasal MTA region membranes, high affinity site (IC50 I)
Experimental: as §1

bovine LHRH receptor [6] = target: T1, bovine LHRH receptor; assay: displacement of 125I-deslorelin, bovine nasal MTA region membranes, low affinity site (IC50 II)
Experimental: as §1

bovine LHRH receptor [7] = target: T1, bovine LHRH receptor; assay: displacement of 125I-deslorelin, bovine nasal ITP region membranes, low affinity site (IC50 II)
Experimental: as §1

bovine LHRH receptor [8] = target: T1, bovine LHRH receptor; assay: displacement of 125I-deslorelin, bovine nasal ITP region membranes, high affinity site (IC50 I)
Experimental: as §1

IC50 (bovine LHRH receptor [1]): 17.9 nM | IC50 (bovine LHRH receptor [2]): 42.1 nM | IC50 (bovine LHRH receptor [3]): 0.031 nM | IC50 (bovine LHRH receptor [4]): 0.112 nM | IC50 (bovine LHRH receptor [5]): 0.136 nM | IC50 (bovine LHRH receptor [6]): 53.2 nM | IC50 (bovine LHRH receptor [7]): 32.9 nM | IC50 (bovine LHRH receptor [8]): 0.102 nM
B1: deslorelin (peptide)
peptide: EHWSYWLRP
modifications: pGlu at position 1; D-Trp at position 6; C-terminal ProNHEt (ethylamide)
notes: Synthetic LHRH analog, gift from Balance Pharmaceuticals; also called unlabelled deslorelin; unlabeled deslorelin
